Assay: soluble on expression in E. coli; label from the status in PepcDB or PDB records

For “TFGPVFEDQPLSVLFPEESTEEQVLLACRARASPPATYRWKMNGTEMKLEPGSRHQLVGGNLVIMNPTKAQDAGVYQCLASNPVGTVVSREAILRFGFLQEFSKEERDPVKAHEGWGVMLPCNPPAHYPGLSYRWLLNEFPNFIPTDGRHFVSQTTGNLYIARTNASDLGNYSCLATSHMDFSTKSVFSKFAQLNLAAEDTRLFAPSIKARFPAETYALVGQQVTLECFAFGNPVPRIKWRKVDGSLSPQWTTAEPTLQIPSVSFEDEGTYECEAENSKGRDTVQGRIIVQAQPEWLKVISDTEADIGSNLRWGCAAAGKPRPTVRWLRNGEPLASQNRVEVLAGDLRFSKLSLEDSGMYQCVAENKHGTIYASAELAVQA”, which “soluble on expression in E. coli” value is on record?
The value was “soluble”.

Which “soluble on expression in E. coli” value does the source give for “TGALMASSPQDIKFQDLVVFILEKKMGTTRRALLMELARRKGFRVENELSDSVTHIVAENNSGSDVLEWLQAQKVQVSSQPELLDVSWLIECIGAGKPVEMTGKHQL” here?
Its value is “soluble”.

With “THGAQHANPVVSGSVSPRPAPAKEQPSVAPSQSSVPPQPSIGEQRRQPETTAPTITEDKPEQTKVVPPTRPMATSTVGSEGRFTLRGIRNKQEQLQNNIQEVRTEMTESFDEEQLQLAWIEFAETKLSEEIHLKETMANCLPKLRPGTSAFEVEVLNSRQEEEINNVSARLLSFLADKLCNTTIRMNVRVSESTSLNRVPVSLDEKIERLNQENPLFDELRMRLGLSLV” as the sequence, how does the “soluble on expression in E. coli” value read?
Its value is “not soluble”.

Which “soluble on expression in E. coli” value does the source give for “TITNILLVGVGGQGILLASEILSEAFMLAGFDVKKSEIHGMSQRGGSVVSHVRYGKEVHSPIVPEGEGDILFGFELMETYRYLPLLRKGGTVVANDLRISPPSVLLGQASYPDDLPDRIRALFPDFLLVDGQHLAAEAGNVRAANTVLLGAVAKQLDIPDECWHKALERMVPPKALDVNRKAFQLGRAL” here?
Its value is “not soluble”.

With “TKDWDWNIEINLGHNKNKLKKLYKTKNAEGQFVEKPIIISDGTSIAGTAKRVLQPGYPCDTYYLKEWAGVNPENGAPQWYKTVENEDGTLSRQKTSNYSEADQVKCGSSSPDIFGGFSTVLRWKDIDLNAVFGYSVGGQIYNYSRQEYDSDGAYNDRNQMKLQKGWNRWEKPGDIATHPVASYSNTSKSNSSSSRYLEKNDYLKLRSLSIGYNLKLPQYYINNMRIFFTGENLFCVTNYSGVDPEIPASDGSVIGTALPSVYPTVRKFMFGLNLTF” as the sequence, how does the “soluble on expression in E. coli” value read?
Its value is “not soluble”.

For “TLNIVITGAKGFVGKNLKADLTSTTDHHIFEVHRQTKEEELESALLKADFVVHLAGVNRPEHDKEFSLGNVSYLDHVLDILTRNTKKPAILLSSSIQATQDNPYGESKLQGEQLLREYAEEYGNTVYIYRWPNLFGKWCKPNYNSVIATFCYKIARNEEIQVNDRNVELTLNYVDDIVAEIKRAIEGTPTIENGVPTVPNVFKVTLGEIVDLLYKFKQSRLDRTLPKLDNLFEKDLYSTYLSYLPSTDFSYPLLMNVDDRGSFTEFIKTPDRGQVSVNISKPGITKGNHWHHTKNEKFLVVSGKGVIRFRHVNDDEIIEYYVSGDKLEVVDIPVGYTHNIENLGDTDMVTIMWVNEMFDPNQPDTYFLEV”, which “soluble on expression in E. coli” value is on record?
Its value is “soluble”.

With “TLQIQFKKYELPPLPYKIDALEPYISKDIIDVHYNGHHKGYVNGANSLLERLEKVVKGDLQTGQYDIQGIIRGLTFNINGHKLHALYWENMAPSGKGGGKPGGALADLINKQYGSFDRFKQVFTETANSLPGTGWAVLYYDTESGNLQIMTFENHFQNHIAEIPIILILDEFEHAYYLQYKNKRADYVNAWWNVVNWDAAEKKLQKYLTK” as the sequence, how does the “soluble on expression in E. coli” value read?
The value was “soluble”.

With “TLTTTPNQLTDGLEKSLRPLNKIHVPVHEIAMMMSIALRFIPILLEETDKIMKAQIARGADFENGNLIQKVKNMVPLLVPLFISAFRRANDLAMAMEARCYHGGDNRTQMKPLKYKKRD” as the sequence, how does the “soluble on expression in E. coli” value read?
The value was “not soluble”.

Which “soluble on expression in E. coli” value does the source give for “TMEEELEPVVRHLVEQRWPFRLHATYNESITRMLDVFEKVNRDIPFNGLPWFFDHAETITPQNIERVRALGGGIAIQDRMAFQGEYFVDRYGAKAAEQTPPIKRMLEMGVPVGAGTDATRVSSYNPWTSLYWLVSGKTVGGMELYPEGLSRDTALQLFTQGSAWFSSEQGKKGQIKVGQLADLAALSLDFFSVDEEAIKGIESVLTIVDGKVVYGAGEFDKFGPPQVPVLPEWSPVTKVPGHWRVGTPSLAAAVHQCSGPCGVHAHSHEKARHSSVPVNDFQGFWGALGCSCFA” here?
The value was “not soluble”.

Which “soluble on expression in E. coli” value does the source give for “TNCVTISQREILKGVEGVTWFEVLLEKTSCITIAAQNRPSIDLWLDDVKQSSVMASKEFCMKVEVSETQIAARCPTQGDATLPMEGKDDYVCKKTFSDRGWGNGCALFGKGSIVGCAKVACNTANVMKTHIYEQQAVQYVVGIEVHRGEVIKANVSDKVIKASFSAEAEKHTVEIPDYGSLDFTCRVVASADLSNIRLLEVDGHYFNVHEDWLDDLPLPWRINAGPWRGMDKLVNFREPYAVKMVIMGYGDQRPAVLGALDKAEEIKKVGDNYHLNGGHVSCKVSVAKLKLKGMTYVVCGGKFAWAKKPIATNHDTVAMEVTYTGNDTPCRVTVKNVKENSDDQGTLITTNPFVESNGATIFLELEPVYGLSTIKVGDITYQWNQQGSVIGKALEHHHHHH” here?
The value was “not soluble”.

For “TNTDQSIKFTSKSNSINKNNQNKELALLRDNLMNEAKVDEPLSFEKRFENFKNKYSDIHSLNNSVFSLHDVYDLLGGFKQSLTTFFDEVIAQQQKIKDADKIFPSTKDNPPKEENPNVLDTLANYQGAGFFPSLGKNGFNLPEAVFQNFTDFRINDYKIKNFNVDLVSENDIIKHDKVRYAFEV”, which “soluble on expression in E. coli” value is on record?
The value was “not soluble”.

With “TPDWRVSLRGSLAYNRNKVISLYYTDRLYTSETALTPDYEVGKAYNMLYGLKSLGINPITGLPVFQGADGSEISPTQNPARENFIVLGHSTPPYSGTFNLNFSYRNFDLDMDFYYVFGGIKPYNYSYVRSADSANKNAIQKQLENMWFHRGDEGKIYHSPFYISPANASLQQPNTETVGKSDYLKLAMLSLRYRVPHTFLEKNCHFIKYANIAFQASNLFMITPYKESDPETGSLAGAMQPVLTINLSLTF” as the sequence, how does the “soluble on expression in E. coli” value read?
The value was “not soluble”.

For “TPGVEKRVIWAPGGYERRTPYALVYLHGFSATSEEIRPVPDHIAQALGANLVFTRLQGHGRGDDAMAQGSASGWMRDTAEALAAGRAVGERVIVIATSTGATLAAAAALDPEMSADVAAMILVSPNFGVNDPLAFVPTLPGARYWLPRLMGDARDVTGPDADKNTYWTTRYSWSALVPMSVLVQAVVSLDFAQARVPALFWFSDQDRVVRADLTRALAGRWGGPVRVEAVTMGPGDDPSSHVIAGDIMSPGQTDIAVAGMLAWLREQGI”, which “soluble on expression in E. coli” value is on record?
Its value is “not soluble”.

Which “soluble on expression in E. coli” value does the source give for “TPPPTQWSYLCHPRVKEVQDEVDGYFLENWKFPSFKAVRTFLDAKFSEVTCLYFPLALDDRIHFACRLLTVLFLIDDVLEHMSFADGEAYNNRLIPISRGDVLPDRTKPEEFILYDLWESMRAHDAELANEVLEPTFVFMRAQTDRARLSIHELGHYLEYREKDVGKALLSALMRFSMGLRLSADELQDMKALEANCAKQLSVVNDIYSYDKEEEASRTGHKEGAFLCSAVKVLAEESKLGIPATKRVLWSMTREWETVHDEIVAEKIASPDGCSEAAKAYMKGLEYQMSGNEQWSKTTR” here?
Its value is “soluble”.

For “TPQYESTTKMYVLSKQDNNTLTQQDMQTSLSLTKDYAELIKSRTVTEGVIAQLNLDLTHEELLKKMTVDSATDTRILSITVTDADPYEACKIANAIRDVAANHIKNVMDIDAVNVVETANIPDQQSSPSISKN”, which “soluble on expression in E. coli” value is on record?
The value was “not soluble”.

For “TQGERRQAEQLAVQTARTISYMPPVKELIERKDGHAAQTQEVIEQMKEQTGAFAIYVLNEKGDIRSASGKSGLKKLERSREILFGGSHVSETKADGRRVIRGSAPIIKEQKGYSQVIGSVSVDFLQT”, which “soluble on expression in E. coli” value is on record?
Its value is “not soluble”.

With “TQVFDLEGYGAISRAMGGTSSSYYTGNAALISNPATLSFAPDGNQFELGLDVVTTDIKVHDSHGAEAKSSTRSNNRGPYVGPQLSYVAQLDDWRFGAGLFVSSGLGTEYGSKSFLSQTENGIQTSFDNSSRLIVLRAPIGFSYQATSKLTFGASVDLVWTSLNLELLLPSSQVGALTAQGNLSGGLVPSLAGFVGTGGAAHFSLSRNSTAGGAVDAVGWGGRLGLTYKLTDNTVLGAMYNFKTSVGDLEGKATLSAISGDGAVLPLDGDIRVKNFEMPASLTLGLAHQFNERWVVAADIKRAYWGDVMDSMNVAFISQLGGIDVALPHRYQDITVASIGTAYKYNNDLTLRAGYSYAQQALDSELILPVIPAYLKRHVTFGGEYDFDKDSRINLAISFGLRERVQTPSYLAGTEMLRQSHSQINAVVSYSKNFHHHHHH” as the sequence, how does the “soluble on expression in E. coli” value read?
The value was “soluble”.

With “TTFTTRDGTQIYYKDWGSGQPIVFSHGWPLNADSWESQMIFLAAQGYRVIAHDRRGHGRSSQPWSGNDMDTYADDLAQLIEHLDLRDAVLFGFSTGGGEVARYIGRHGTARVAKAGLISAVPPLMLKTEANPGGLPMEVFDGIRQASLADRSQLYKDLASGPFFGFNQPGAKSSAGMVDWFWLQGMAAGHKNAYDCIKAFSETDFTEDLKKIDVPTLVVHGDADQVVPIEASGIASAALVKGSTLKIYSGAPHGLTDTHKDQLNADLLAFIKG” as the sequence, how does the “soluble on expression in E. coli” value read?
The value was “soluble”.

For “TTHKFEHPLNEKTRIYLRVESLLRQAHLASGFADNHQYQLFFRALFDMVEIFEQIQLKSELAKDLEKQRLSYRHWLNVEGVDQEALNSLLNEIDVVHSQLMGAERFGQALKEDRFLSSIRQRFNLPGGSCCFDLPALHYWLHLPIERKKHDANQWQKSLKPLSDALTLWLKLARETGHFKAQIARAGFFQSDADEANILRLHIPMKYGVYPMISGHKNRFAIKFMAFENGQACSQDVEFELAVC”, which “soluble on expression in E. coli” value is on record?
Its value is “soluble”.

For “TVDKRYLNDEHFIDPELVSQRAAPLTEADKQILADKSLGYRVLNLTVDTYNDATTSRWHRSIGGYHAAKLQRYQDLIEHQLSKGNREVVNMLNTKYIIVPGENNRPSPMSNPDAYGPAWPAGSIRWVGNANEEMMALDSNRLTRDIAVVDERFSSESLKRLPALTDSTASISLKEYAPNRQVYEAVSTQPMLGIFSEIYYPHGWTATIDNQAVPIIRANYILRALEVPAGRHKIEFRFDPKSLHITEAIAKT”, which “soluble on expression in E. coli” value is on record?
The value was “not soluble”.

For “VAARTGNDPATDVRSTILTAAETCFERFGITKTTMEDVARAADMSRATVYRYFSDRESLIIESVARRARKNMKPARAFIAKWPTIEERLVEGICNNVESGLRDPMVHLLVSPSEMTLANSLLTTSGKAVELTSELWEPILRDAQEAGDIRADVDLALLCEWISELEIMCISQLNGGTGSLERFREKLRAFLVPSLLPAGN”, which “soluble on expression in E. coli” value is on record?
Its value is “not soluble”.

With “VAEEATGDWGQIFTAFNELSQTLAEYEEERVKHRNELQQERDRFRRLFQSIPEPAVVVEYTGNKTLIHNVNEAFEETFGYEASNAVGGDINDFIVPDGSLEEAESIDQLSSSGKQVTHEVRREAADGKRDFLLRSTPAVDGE” as the sequence, how does the “soluble on expression in E. coli” value read?
Its value is “not soluble”.

With “VAEQKVKRNVELAGVDVILVHRMLKNEVPVSEYLFMTDVVAQCLDESVRKLATPLTHDFEGIGETSTHYIDLATSDMPPAVPDHSFFGLLWADVKFEWHALPYLLGFKKACAGFRSLGRGATEEPAEMG” as the sequence, how does the “soluble on expression in E. coli” value read?
The value was “not soluble”.

With “VAKATNAPLSVSKIDFKRGDDGSGRLILKFDGQGATPDLRTQGGTVLVDLGTAVLPTVLQRQINVVDFATPVQRIDAKPMGKGAQLVLSTKGAFESLAYQTGDEYVVEIVPRKGEAAM” as the sequence, how does the “soluble on expression in E. coli” value read?
Its value is “not soluble”.

With “VDICNHALLVGFGRVGSLLGEKLMAQGIPLVVVETSRTRVDELRERGISAVLGNAANEEIMELAHLDCARWLLLTIPNGYEAGEIVASAREKCPNIEIIARAHYDDEVDYIIDRGANQVVMGEREIARAMLRLLETPPAG” as the sequence, how does the “soluble on expression in E. coli” value read?
The value was “not soluble”.

From the DeepSol protein solubility set
